Measured values taken from US20220267796A1.

Tests used:
[1] = biological target: AAV9 (recombinant adeno-associated virus serotype 9 particles, capsid of VP1, VP2 and VP3 of AAV9) (adeno-associated virus 9 (AAV9)); test: batch adsorption, 0.2 g resin + 9.6 g LOAD, 15 to 16 h at +2° C. to +8° C.; AAV9 ELISA of supernatant
[2] = biological target: AAV9 (recombinant adeno-associated virus serotype 9 particles, capsid of VP1, VP2 and VP3 of AAV9) (adeno-associated virus 9 (AAV9)); test: batch adsorption at room temperature, then 30 min in 1 ml cold 125 mM NaCl/50 mM Tris HCl pH 8.5 at +2° C. to +8° C.; AAV9 ELISA of supernatant
[3] = biological target: AAV8 (recombinant adeno-associated virus serotype 8 particles, capsid of VP1, VP2 and VP3 of AAV8) (adeno-associated virus 8 (AAV8)); test: affinity chromatography on AAVX column, +18-26° C., 125 mM NaCl/50 mM TrisHCl pH 8.5; AAV8 ELISA of fraction (load 23.2 x 10^11 cp/ml)
[4] = biological target: AAV8 (recombinant adeno-associated virus serotype 8 particles, capsid of VP1, VP2 and VP3 of AAV8) (adeno-associated virus 8 (AAV8)); test: affinity chromatography on AAVX column, +18-26° C., 125 mM NaCl/50 mM TrisHCl pH 8.5; AAV8 ELISA of fraction
[5] = biological target: AAV9 (recombinant adeno-associated virus serotype 9 particles, capsid of VP1, VP2 and VP3 of AAV9) (adeno-associated virus 9 (AAV9)); test: affinity chromatography on AAVX column, strip at +2-8° C. with 100 mM Glycine, 200 mM NaCl pH 2.0; AAV9 ELISA of fraction
[6] = biological target: AAV9 (recombinant adeno-associated virus serotype 9 particles, capsid of VP1, VP2 and VP3 of AAV9) (adeno-associated virus 9 (AAV9)); test: affinity chromatography on AAVX column, +22-28° C., 125 mM NaCl/50 mM TrisHCl pH 8.5; AAV9 ELISA of fraction
[7] = biological target: AAV9 (recombinant adeno-associated virus serotype 9 particles, capsid of VP1, VP2 and VP3 of AAV9) (adeno-associated virus 9 (AAV9)); test: affinity chromatography on AAVX column, gradient 1 mM to 20 mM HCl/200 mM NaCl at +2-8° C.; AAV9 ELISA of fraction
[8] = biological target: AAV9 (recombinant adeno-associated virus serotype 9 particles, capsid of VP1, VP2 and VP3 of AAV9) (adeno-associated virus 9 (AAV9)); test: affinity chromatography on AAVX column, standard elution at +18-26° C. with 100 mM Glycine, 200 mM NaCl pH 2.7; AAV9 ELISA of fraction
[9] = biological target: AAV8 (recombinant adeno-associated virus serotype 8 particles, capsid of VP1, VP2 and VP3 of AAV8) (adeno-associated virus 8 (AAV8)); test: affinity chromatography on AAVX column, +2-8° C., ELT-buffer pH 7.0; AAV8 ELISA of fraction
[10] = biological target: AAV9 (recombinant adeno-associated virus serotype 9 particles, capsid of VP1, VP2 and VP3 of AAV9) (adeno-associated virus 9 (AAV9)); test: affinity chromatography on AAVX column, elution at +2-8° C. with 100 mM NaAcetate/0.1% Tween 80 pH 6.0; AAV9 ELISA of fraction
[11] = biological target: AAV9 (recombinant adeno-associated virus serotype 9 particles, capsid of VP1, VP2 and VP3 of AAV9) (adeno-associated virus 9 (AAV9)); test: affinity chromatography on AAVX column, +22-28° C., 100 mM NaAcetate/0.1% Tween 80 pH 6.0; AAV9 ELISA of fraction
[12] = biological target: AAV8 (recombinant adeno-associated virus serotype 8 particles, capsid of VP1, VP2 and VP3 of AAV8) (adeno-associated virus 8 (AAV8)); test: affinity chromatography on AAVX column, gradient 1 mM to 20 mM HCl/200 mM NaCl at +2-8° C.; AAV8 ELISA of pooled fraction
[13] = biological target: AAV9 (recombinant adeno-associated virus serotype 9 particles, capsid of VP1, VP2 and VP3 of AAV9) (adeno-associated virus 9 (AAV9)); test: affinity chromatography on AAVX column, elution at +2-8° C. with 125 mM NaCl/50 mM TrisHCl pH 8.5; AAV9 ELISA of fraction
[14] = biological target: AAV9 (recombinant adeno-associated virus serotype 9 particles, capsid of VP1, VP2 and VP3 of AAV9) (adeno-associated virus 9 (AAV9)); test: affinity chromatography on AAVX column, +22-28° C., 125 mM NaCl/50 mM TrisHCl pH 8.5; AAV9 ELISA of fraction (load 2.86 x 10^11 cp/ml)
[15] = biological target: AAV8 (recombinant adeno-associated virus serotype 8 particles, capsid of VP1, VP2 and VP3 of AAV8) (adeno-associated virus 8 (AAV8)); test: affinity chromatography on AAVX column, +2-8° C., 100 mM NaAcetate/0.1% Tween 80 pH 6.0; AAV8 ELISA of fraction
[16] = biological target: AAV8 (recombinant adeno-associated virus serotype 8 particles, capsid of VP1, VP2 and VP3 of AAV8) (adeno-associated virus 8 (AAV8)); test: affinity chromatography on AAVX column, +2-8° C., 125 mM NaCl/50 mM TrisHCl pH 8.5; AAV8 ELISA of fraction
[17] = biological target: AAV8 (recombinant adeno-associated virus serotype 8 particles, capsid of VP1, VP2 and VP3 of AAV8) (adeno-associated virus 8 (AAV8)); test: affinity chromatography on AAVX column, +18-26° C., 100 mM NaAcetate/0.1% Tween 80 pH 6.0; AAV8 ELISA of fraction
[18] = biological target: AAV9 (recombinant adeno-associated virus serotype 9 particles, capsid of VP1, VP2 and VP3 of AAV9) (adeno-associated virus 9 (AAV9)); test: batch adsorption, 0.2 g resin + 9.6 g LOAD, 15 to 16 h at +18° C. to +30° C., 125 mM NaCl/50 mM Tris HCl pH 8.5; AAV9 ELISA of supernatant

POROS CaptureSelect AAVX Affinity Resin (Cat. No. 36742; Thermo Fisher), immobilised affinity ligand
% AAV9 Antigen in supernatant (not bound) after incubation at low temperature [1]: 63.7% | % AAV9 Antigen in eluate (released at low temperature) [2]: 36.7% | AAV8 Antigen cp/ml in flow-through/wash 1 (not bound) [3]: < 1.59e+09 cp/ml | AAV8 Antigen cp/ml in wash 3 [4]: < 1.59e+09 cp/ml | AAV9 Antigen [%] of load released only by acidic strip [5]: 16.9% | AAV9 Antigen [%] of load found in flow-through/wash 1 (not bound) [6]: 1.76% | AAV9 Antigen [%] of load found in wash 3 [6]: 0.04% | AAV9 Antigen cp/ml in wash 3 [6]: < 3.8e+09 cp/ml | AAV9 Antigen [%] of load released by acidic gradient [7]: 5.42% | AAV9 Antigen [%] of load released by acidic elution [8]: 81.5% | AAV8 Antigen cp/ml in low temperature eluate 2 [9]: < 1.59e+09 cp/ml | AAV9 Antigen [%] of load released in low temperature eluate 1 [10]: 61.2% | AAV9 Antigen [%] of load found in wash 2 [11]: 0.04% | AAV9 Antigen cp/ml in wash 2 [11]: < 3.8e+09 cp/ml | AAV9 Antigen cp/ml in wash 4 [11]: < 3.8e+09 cp/ml | AAV8 Antigen [%] of load released by acidic gradient [12]: 75.8% | AAV9 Antigen [%] of load released in low temperature eluate [13]: 44.8% | AAV9 Antigen [%] of load released in low temperature eluate 3 [13]: 11.6% | AAV9 Antigen cp/ml in flow-through/wash 1 (not bound) [14]: < 3.8e+09 cp/ml | AAV8 Antigen cp/ml in low temperature eluate 1 [15]: < 1.59e+09 cp/ml | AAV8 Antigen cp/ml in low temperature eluate 3 [16]: < 1.59e+09 cp/ml | AAV8 Antigen cp/ml in wash 2 [17]: < 1.59e+09 cp/ml | AAV8 Antigen cp/ml in wash 4 [17]: < 1.59e+09 cp/ml | % AAV9 Antigen in supernatant (not bound) after incubation at room temperature [18]: 6.2%
